Results taken from publication PMC3273806 (Nucleic Acids Research, 2011).
Each block holds one binder with its values, some of them ahead of it.

Experiments:
[1] = target: human RAD6A (human, UniProt P49459 1-152); assay: pull-down
[2] = target: human RAD18, wild type, His-tagged or FLAG-tagged (human, UniProt Q9NS91 1-495); assay: pull-down

binding result [1]: binds
B1: ^HisRAD18^ΔN1 (residues 113-495) (domain or fragment)
chain: AVKVYTPVASRQSLKQGSRLMDNFLIREMSGSTSELLIKENKSKFSPQKEASPAAKTKETRSVEEIAPDPSEAKRPEPPSTSTLKQVTKVDCPVCGVNIPESHINKHLDSCLSREEKKESLRSSVHKRKPLPKTVYNLLSDRDLKKKLKEHGLSIQGNKQQLIKRHQEFVHMYNAQCDALHPKSAAEIVREIENIEKTRMRLEASKLNESVMVFTKDQTEKEIDEIHSKYRKKHKSEFQLLVDQARKGYKKIAGMSQKTVTITKEDESTEKLSSVCMGQEDNMTSVTNHFSQSKLDSPEELEPDREEDSSSCIDIQEVLSSSESDSCNSSSSDIIRDLLEEEEAWEASHKNDLQDTEISPRQNRRTRAAESAEIEPRNKRNRN

binding result [2]: binds
B2: RAD18^ΔC1 (residues 1-341), His-tagged or FLAG-tagged (domain or fragment)
chain: MDSLAESRWPPGLAVMKTIDDLLRCGICFEYFNIAMIIPQCSHNYCSLCIRKFLSYKTQCPTCCVTVTEPDLKNNRILDELVKSLNFARNHLLQFALESPAKSPASSSSKNLAVKVYTPVASRQSLKQGSRLMDNFLIREMSGSTSELLIKENKSKFSPQKEASPAAKTKETRSVEEIAPDPSEAKRPEPPSTSTLKQVTKVDCPVCGVNIPESHINKHLDSCLSREEKKESLRSSVHKRKPLPKTVYNLLSDRDLKKKLKEHGLSIQGNKQQLIKRHQEFVHMYNAQCDALHPKSAAEIVREIENIEKTRMRLEASKLNESVMVFTKDQTEKEIDEIHSK
